These results are taken from patent US20220362368A1.

For one assay, the target named is human IgE. The assay can be described thus: method and unit not told (binding affinity of the variants to human IgE).
For the substance “SpAKKAA (from UniProt A0A0H3K686 37-327)”, the human IgE affinity amounted to 6.57e-08.

The substance “SpAQ9,10K/G29A/D36,37A (from UniProt A0A0H3K686 37-327)” gave a human IgE affinity of 3.43e-06. In turn, “SpAQ9,10K/G29F/D36,37A (from UniProt P02976 37-327)” displayed a human IgE affinity of 2.02e-05.

A further assay has as its target Fcγ fragment of human IgG (human). As to the kind of experiment: BLI, test article on Ni-NTA sensor, Fc fragment of human IgG in solution.
For “SpAKKAA (from UniProt A0A0H3K686 37-327)”, the Ka came out at 32.9 M⁻¹. “SpAQ9,10K/S33E (from UniProt A0A0H3K686 37-327)” gave a Ka of 32.7 M⁻¹. “SpAQ9,10K/S33T (from UniProt A0A0H3K686 37-327)”: the Ka stood at 39.9 M⁻¹.

With “wild-type SpA (five immunoglobulin-binding domains of staphylococcal protein A) (from UniProt P02976 37-327)”, the Ka was 5.17e+07 M⁻¹.

Another assay deals with F(ab)2 fragment of human IgG. The assay can be described thus: SPR, test article on chip, F(ab)2 fragment of human IgG in flow.
The substance “SpAKKAA (from UniProt A0A0H3K686 37-327)” registered a Ka of 82700 M⁻¹.

Regarding “SpAQ9,10K/S33E (from UniProt A0A0H3K686 37-327)”, the Ka is 41.2 M⁻¹.

In turn, “SpAQ9,10K/S33T (from UniProt A0A0H3K686 37-327)” showed a Ka of 43.5 M⁻¹.

The next assay addresses SpAKKAA (Staphylococcus aureus). The assay can be described thus: ELISA, plates coated with SpAKKAA, serial dilution of hMAb 3F6.
For hMAb 3F6 (antibody), the concentration for a half-maximal effect (EC50 (read off the curve)) came out at 0.4 nM.

A further assay shares this target. The assay can be described thus: ELISA, plates coated with SpAKKAA, serial dilution of rMAb 3F6.
Consider “recombinant monoclonal antibody rMAb 3F6”, for which the EC50 (read off the curve) was 0.07 nM.

A further assay concerns the target human IgG. As to the kind of experiment: method and unit not given (binding affinity of the variants to human IgG).
As to “SpAKKAA (from UniProt A0A0H3K686 37-327)”, the human IgG affinity is 6.6e-05. Consider “SpAQ9,10K/G29A/D36,37A (from UniProt A0A0H3K686 37-327)”, for which the human IgG affinity came out at 0.000143. Substance “SpAQ9,10K/G29F/D36,37A (from UniProt P02976 37-327)” displayed a human IgG affinity of 0.0124.

A further assay has as its target human IgG. As to the kind of experiment: SPR, test article on chip, human IgG in flow.
In turn, “SpAKKAA (from UniProt A0A0H3K686 37-327)” returned a Ka of 502000 M⁻¹. “SpAQ9,10K/G29A (from UniProt A0A0H3K686 37-327)” showed a Ka of 1.13e+06 M⁻¹. In turn, “SpAQ9,10K/G29A/D36,37A (from UniProt A0A0H3K686 37-327)” displayed a Ka of 178000 M⁻¹. Turning to “SpAQ9,10K/G29C (from UniProt A0A0H3K686 37-327)”, the Ka was 174000 M⁻¹. Regarding “SpAQ9,10K/G29D (from UniProt A0A0H3K686 37-327)”, the Ka was determined as 548000 M⁻¹.

Substance “SpAQ9,10K/G29E (from UniProt A0A0H3K686 37-327)” came in with a Ka of 318000 M⁻¹. In the case of “SpAQ9,10K/G29F (from UniProt A0A0H3K686 37-327)”, the Ka stood at 346000 M⁻¹. As to “SpAQ9,10K/G29F/D36,37A (from UniProt P02976 37-327)”, the Ka was determined as 372000 M⁻¹. On the same count and under the same terms, in the case of “SpAQ9,10K/G29H (from UniProt A0A0H3K686 37-327)” it was 144000 M⁻¹. In turn, “SpAQ9,10K/G29I (from UniProt A0A0H3K686 37-327)” registered a Ka of 1.01e+06 M⁻¹.

For the substance “SpAQ9,10K/G29K (from UniProt A0A0H3K686 37-327)”, the Ka came to 974000 M⁻¹. Substance “SpAQ9,10K/G29L (from UniProt A0A0H3K686 37-327)” returned a Ka of 315000 M⁻¹. Same read-out and setting: the value for “SpAQ9,10K/G29M (from UniProt A0A0H3K686 37-327)” was 389000 M⁻¹; that for “SpAQ9,10K/G29N (from UniProt A0A0H3K686 37-327)” was 623000 M⁻¹; that for “SpAQ9,10K/G29P (from UniProt A0A0H3K686 37-327)” was 340000 M⁻¹. Substance “SpAQ9,10K/G29Q (from UniProt A0A0H3K686 37-327)” had a Ka of 206000 M⁻¹. The substance “SpAQ9,10K/G29R (from UniProt A0A0H3K686 37-327)” showed a Ka of 606000 M⁻¹. On the same count and under the same terms, in the case of “SpAQ9,10K/G29R/D36,37A (from UniProt A0A0H3K686 37-327)” it was 681000 M⁻¹; in that of “SpAQ9,10K/G29S (from UniProt A0A0H3K686 37-327)”, 940000 M⁻¹; in that of “SpAQ9,10K/G29T (from UniProt A0A0H3K686 37-327)”, 198000 M⁻¹.

In the case of “SpAQ9,10K/G29V (from UniProt A0A0H3K686 37-327)”, the Ka is 435000 M⁻¹.

“SpAQ9,10K/G29W (from UniProt A0A0H3K686 37-327)”: the Ka stood at 451000 M⁻¹. “SpAQ9,10K/G29Y (from UniProt A0A0H3K686 37-327)” registered a Ka of 837000 M⁻¹.

The substance “SpAQ9,10K/S33A/D36,37A (from UniProt A0A0H3K686 37-327)” registered a Ka of 1.88e+06 M⁻¹. As to “SpAQ9,10K/S33C (from UniProt P02976 37-327)”, the Ka turned out to be 458000 M⁻¹. The substance “SpAQ9,10K/S33D (from UniProt P02976 37-327)” gave a Ka of 382000 M⁻¹. “SpAQ9,10K/S33E (from UniProt A0A0H3K686 37-327)”: the Ka came to 49600 M⁻¹. On the same count and under the same terms, the value for “SpAQ9,10K/S33E/D36,37A (from UniProt P02976 37-327)” was 56800 M⁻¹; that for “SpAQ9,10K/S33E/D36,37A/G29A (from UniProt P02976 37-327)” was 189000 M⁻¹; that for “SpAQ9,10K/S33E/D36,37A/G29F (from UniProt P02976 37-327)” was 1.48e+06 M⁻¹. “SpAQ9,10K/S33E/D36,37A/G29R (from UniProt P02976 37-327)”: the Ka was found to be 1.02e+06 M⁻¹. The substance “SpAQ9,10K/S33E/G29A (from UniProt P02976 37-327)” gave a Ka of 126000 M⁻¹. As for “SpAQ9,10K/S33E/G29F (from UniProt P02976 37-327)”, the Ka stood at 158000 M⁻¹. On the same count and under the same terms, in the case of “SpAQ9,10K/S33E/G29R (from UniProt P02976 37-327)” it was 484000 M⁻¹.

Regarding “SpAQ9,10K/S33F/D36,37A (from UniProt A0A0H3K686 37-327)”, the Ka turned out to be 363000 M⁻¹. For the substance SpAQ9,10K/S33F/D36,37A/G29R, the Ka is 906000 M⁻¹.

The substance “SpAQ9,10K/S33F/G29A (from UniProt A0A0H3K686 37-327)” displayed a Ka of 119000 M⁻¹.

For the substance “SpAQ9,10K/S33F/G29F (from UniProt A0A0H3K686 37-327)”, the Ka was determined as 244000 M⁻¹.

As to “SpAQ9,10K/S33F/G29R (from UniProt A0A0H3K686 37-327)”, the Ka stood at 190000 M⁻¹. In turn, “SpAQ9,10K/S33G (from UniProt P02976 37-327)” had a Ka of 1.12e+06 M⁻¹.

“SpAQ9,10K/S33H (from UniProt A0A0H3K686 37-327)” yielded a Ka of 278000 M⁻¹. Substance “SpAQ9,10K/S33I (from UniProt A0A0H3K686 37-327)” yielded a Ka of 184000 M⁻¹.

“SpAQ9,10K/S33K (from UniProt P02976 37-327)” came in with a Ka of 512000 M⁻¹.

For the substance “SpAQ9,10K/S33K/D36,37A (from UniProt A0A0H3K686 37-327)”, the Ka is 805000 M⁻¹. Consider “SpAQ9,10K/S33L (from UniProt A0A0H3K686 37-327)”, for which the Ka was determined as 205000 M⁻¹.

For “SpAQ9,10K/S33M (from UniProt A0A0H3K686 37-327)”, the Ka was 318000 M⁻¹.

The substance “SpAQ9,10K/S33N (from UniProt A0A0H3K686 37-327)” showed a Ka of 307000 M⁻¹. Consider “SpAQ9,10K/S33P (from UniProt P02976 37-327)”, for which the Ka came to 422000 M⁻¹. “SpAQ9,10K/S33Q/D36,37A (from UniProt P02976 37-327)” registered a Ka of 393000 M⁻¹. SpAQ9,10K/S33Q/D36,37A/G29A had a Ka of 489000 M⁻¹.

With SpAQ9,10K/S33Q/D36,37A/G29F, the Ka was 1.25e+06 M⁻¹. SpAQ9,10K/S33Q/D36,37A/G29R returned a Ka of 638000 M⁻¹. Substance “SpAQ9,10K/S33Q/G29A (from UniProt A0A0H3K686 37-327)” gave a Ka of 256000 M⁻¹. With “SpAQ9,10K/S33Q/G29F (from UniProt A0A0H3K686 37-327)”, the Ka was found to be 128000 M⁻¹. Substance “SpAQ9,10K/S33Q/G29R (from UniProt A0A0H3K686 37-327)” gave a Ka of 233000 M⁻¹.

For “SpAQ9,10K/S33R (from UniProt A0A0H3K686 37-327)”, the Ka came out at 346000 M⁻¹. “SpAQ9,10K/S33T (from UniProt A0A0H3K686 37-327)” displayed a Ka of 38600 M⁻¹. In the case of “SpAQ9,10K/S33V (from UniProt A0A0H3K686 37-327)”, the Ka was determined as 247000 M⁻¹. Still for that read-out and setting: in the case of “SpAQ9,10K/S33W (from UniProt A0A0H3K686 37-327)” it was 236000 M⁻¹; in that of “SpAQ9,10K/S33Y (from UniProt A0A0H3K686 37-327)”, 157000 M⁻¹.

Another assay has as its target SpAQ9,10K/S33T (Staphylococcus aureus).
Assay: not given
As to “recombinant monoclonal antibody rMAb 3F6”, the concentration giving a half-maximal response (EC50 (read off the curve)) was 0.07 nM.

A further assay addresses SpAQ9,10K/S33E (Staphylococcus aureus).
Assay: not given
For the substance “recombinant monoclonal antibody rMAb 3F6”, the EC50 (read off the curve) was 0.07 nM.

In the next assay the target is SpAQ9,10K/S33T (Staphylococcus aureus).
Assay: not given
The source holds these as a separate data set.
For the substance hMAb 3F6 (antibody), the concentration giving a half-maximal response (EC50 (read off the curve)) came out at 0.3 nM.

The next assay deals with SpAQ9,10K/S33E (Staphylococcus aureus).
Assay: not given
This is another data set of the same source.
In the case of hMAb 3F6 (antibody), the EC50 (read off the curve) worked out at 0.3 nM.

The target of another assay is SpAKKAA (Staphylococcus aureus). As to the kind of experiment: ELISA, association constant calculated with GraphPad Prism; head of the table: KA (x 10^10) M^-1.
Regarding hMAb 3F6 (antibody), the Ka is 4.99e+10 M⁻¹.

The target in a further assay is SpAQ9,10K/S33T (Staphylococcus aureus). The description is as above.
Turning to hMAb 3F6 (antibody), the Ka is 7.96e+10 M⁻¹.

A further assay has as its target SpAQ9,10K/S33E (Staphylococcus aureus). Described as above.
Turning to hMAb 3F6 (antibody), the Ka is 9.82e+10 M⁻¹.

The target of the next assay is SpAKKAA (Staphylococcus aureus). As to the kind of experiment: ELISA, plate coated with antigen, serial dilutions of rMAb 3F6.
The substance “recombinant monoclonal antibody rMAb 3F6” displayed a Ka of 1.51e+10 M⁻¹.

A further assay addresses SpAQ9,10K/S33T (Staphylococcus aureus). Described as above.
Substance “recombinant monoclonal antibody rMAb 3F6” gave a Ka of 1.34e+10 M⁻¹.

The next assay concerns the target SpAQ9,10K/S33E (Staphylococcus aureus). Described as above.
With “recombinant monoclonal antibody rMAb 3F6”, the Ka worked out at 1.42e+10 M⁻¹.

The target of a further assay is SpAKKAA (Staphylococcus aureus). As to the kind of experiment: ELISA, OD 450 against log10(1/dilution of 3F6), initial 0.05 mg/mL.
Regarding 3F6 (antibody), the EC50 (read off the curve) was 6 ng/mL.

A further assay has as its target SpAQ9,10K/G29F/D36,37A (Staphylococcus aureus) (UniProt P02976). The assay is described as above.
As to 3F6 (antibody), the concentration giving a half-maximal response (EC50 (read off the curve)) amounted to 6 ng/mL.
